First the molecules themselves.
T1: EpCAM on human tumor cells (SW480, HCT116, HCT116-Luc, KATO-III, A549) (human, UniProt P16422 24-314)
T1 construct: whole, on cells; also called epithelial cell adhesion molecule
T1 sequence (looked up): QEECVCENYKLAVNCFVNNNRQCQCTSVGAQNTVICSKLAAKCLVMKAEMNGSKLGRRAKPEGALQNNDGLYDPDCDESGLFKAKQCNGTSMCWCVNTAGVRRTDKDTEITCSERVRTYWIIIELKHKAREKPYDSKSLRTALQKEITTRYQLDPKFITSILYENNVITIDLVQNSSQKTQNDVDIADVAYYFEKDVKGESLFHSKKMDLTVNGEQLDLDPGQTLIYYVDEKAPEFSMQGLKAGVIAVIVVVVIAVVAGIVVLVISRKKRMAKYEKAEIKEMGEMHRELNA

B1: mHmL (antibody, V domains shown)
VH: QVKLQQSGAELVRPGASVKLSCKASGYTFTNYWINWVKQRPGQGLEWIGNIYPSYIYTNYNQEFKDKVTLTVDESSSTAYMQLSSPTSEDSAVYYCTRSPYGYDEYGLDYWGQGTTVTVSS
VL: DIELTQSPSSLTVTAGEKVTMNCKSSQSLLNSRNQKNYLTWYQQKPGQPPKLLIYWASTRESGVPDRFTGSGSGTDFTLTISSVQAEDLAVYYCQNDYVYPLTFGAGTKLEIK
notes: it was captured on Protein A; also called original antibody mHmL; EpCAM antibody
B2: H2L1 (antibody, V domains shown)
VH: QVQLVQSGAEVKKPGASVKVSCKASGYTFTNYWINWVRQAPGQGLEWIGNIYPSYIYTNYNQEFKDKVTLTVDESTSTAYMELSSLRSEDTAVYYCTRSPYGYDEYGLDYWGQGTTVTVSS
VL: DIQLTQSPSSLSASVGDRVTMTCKSSQSLLNSRNQKNYLTWYQQKPGKAPKLLIYWASTRESGVPSRFSGSGSGTDFTLTISSVQPEDFATYYCQNDYVYPLTFGQGTKLEIK
notes: Recombinant antibody from ExpiCHO-s; the limits were counted from the printed signal peptide, linker and hinge
B3: H2L3 (antibody, V domains shown)
VH: B2 VH
VL: DIVLTQSPDSLAVSLGERATMNCKSSQSLLNSRNQKNYLTWYQQKPGQPPKLLIYWASTRESGVPDRFSGSGSGTDFTLTISSLQAEDVAVYYCQNDYVYPLTFGQGTKLEIK
notes: as for B2
B4: H2L4 (antibody, V domains shown)
VH: B2 VH
VL: EIVLTQSPATLSLSPGERATMSCKSSQSLLNSRNQKNYLTWYQQKPGQAPRLLIYWASTRESGIPARFSGSGSGTDFTLTISSLEPEDFAVYYCQNDYVYPLTFGQGTKLEIK
notes: as for B2
B5: H3L3 (antibody, V domains shown)
VH: B2 VH with K67R, V72R, E74T, T76I, S85R, E89D
VL: B3 VL
notes: as for B2
B6: H1L1 (antibody, V domains shown)
VH: B2 VH with V20L, R38K
VL: B2 VL
notes: Recombinant antibody from ExpiCHO-s; These limits were counted from the printed signal peptide, linker and hinge
B7: H5L1 (antibody, V domains shown)
VH: B2 VH with K67R, L70M, V72R, E74T, T76I, S85R, E89D
VL: B2 VL
notes: as for B2
B8: H1L3 (antibody, V domains shown)
VH: B2 VH with V20L, R38K
VL: B3 VL
notes: as for B2
B9: H3L2 (antibody, V domains shown)
VH: B2 VH with K67R, V72R, E74T, T76I, S85R, E89D
VL: B2 VL with S32T, V84L
notes: as for B2
B10: H4L1 (antibody, V domains shown)
VH: B2 VH with N61A, E63K, K65Q, D66G, K67R, V72R, E74T, A79V
VL: B2 VL
notes: as for B2
B11: H2L2 (antibody, V domains shown)
VH: B2 VH
VL: B2 VL with S32T, V84L
notes: as for B2
B12: H1L4 (antibody, V domains shown)
VH: B2 VH with V20L, R38K
VL: B4 VL
notes: as for B2
B13: H3L1 (antibody, V domains shown)
VH: B2 VH with K67R, V72R, E74T, T76I, S85R, E89D
VL: B2 VL
notes: as for B2

The results in this text go back to patent US20230357427A1 (SHANGHAI IMMUNOHEAD BIOTECHNOLOGY, published 2023).

Numbering of substitutions follows the chain as printed.

One assay deals with T1, EpCAM on human tumor cells (SW480, …). The assay is described as follows: flow cytometry on SW480 cells. The text has this:
(§1) The EC50 values of each recombinant antibody on SW480 and HCT116 are shown in Table 3, which are derived from FIGS. 1-4.
On the technique in general: Flow cytometry measures light scatter and fluorescence of single cells or particles in a stream.
By EC50 is commonly meant the concentration that produces a half-maximal response. A high value points to lower potency in that assay. In turn, B1 yielded an EC50 of 0.581 µg/mL.

Turning to B2, the EC50 came to 0.599 µg/mL.

In the case of B3, the EC50 came to 0.653 µg/mL.

Turning to B4, a half-maximal effect (EC50) was put at 0.655 µg/mL.

Molecule B5 displayed a concentration giving a half-maximal response (EC50) of 0.542 µg/mL.

As for B6, a half-maximal response (EC50) required 0.567 µg/mL.

With B7, the midpoint of the response, the EC50, lay at 0.449 µg/mL.

In turn, B8 returned an EC50 of 0.631 µg/mL.

Molecule B9 registered an EC50 of 0.569 µg/mL.

The molecule B10 showed an EC50 of 0.568 µg/mL.

B11 yielded an EC50 of 0.595 µg/mL.

As for B12, the EC50 was 0.675 µg/mL.

With B13, a half-maximal response (EC50) required 0.564 µg/mL.

For a further assay the target is unchanged. The assay is described as follows: flow cytometry on HCT116 cells.
From the text: as §1
As to B1, the EC50 was found to be 0.468 µg/mL.

B2 showed an EC50 of 0.583 µg/mL.

Regarding B3, the EC50 is 0.584 µg/mL.

Consider B4, for which the midpoint of the response, the EC50, lay at 0.584 µg/mL.

As for B5, it took 0.492 µg/mL to reach a half-maximal effect (EC50).

The molecule B6 came in with an EC50 of 0.503 µg/mL.

Turning to B7, it took 0.426 µg/mL to reach a half-maximal effect (EC50).

B8 returned an EC50 of 0.563 µg/mL.

B9 yielded an EC50 of 0.472 µg/mL.

The molecule B10 showed an EC50 of 0.474 µg/mL.

In the case of B11, the EC50 was found to be 0.537 µg/mL.

Regarding B12, the response was half-maximal at 0.602 µg/mL (EC50).

Consider B13, for which the half-maximal effective concentration (EC50) came out at 0.478 µg/mL.
